Data reported in paper PMC7960543 (The Journal of Biological Chemistry, 2021).

B1: recombinant soluble CD40L (residues 118–261) with no N-terminal KGD motif, wild type [not stated] / CD40 fragment (residues 21–144) fused to GST [not stated] (parent complex)
chain 1: QNPQIAAHVISEASSKTTSVLQWAEKGYYTMSNNLVTLENGKQLTVKRQGLYYIYAQVTFCSNREASSQAPFIASLCLKSPGRFERILLRAANTHSSAKPCGQQSIHLGGVFELQPGASVFVNVTDPSQVSHGTGFTSFGLLKL
chain 2: EPPTACREKQYLINSQCCSLCQPGQKLVSDCTEFTETECLPCGESEFLDTWNRETHCHQHKYCDPNLGLRVQQKGTSETDTICTCEEGWHCTSEACESCVLHRSCSPGFGVKQIATGVSDTICE

Variants of: B1
Experiment: ELISA; GST-CD40 (21–144) immobilized at 100 μg/ml in PBS; CD40L mutants 20 μg/ml; detection with anti-histidine Abs; read off a plot

Variant	response
chain 1 S11R, chain 1 E12G	~0.29 OD450
chain 1 K26T	~0.32 OD450
chain 1 G27E	~0.35 OD450
chain 1 L38P	~0.24 OD450
